Consider twelve molecules from patent publication US10273464B2, “Methods and isolated protein compositions for isoprenoid diphosphate synthesis” (The Salk Institute for Biological Studies, priority 2009, dated 2019).

A short description of data set [1]: pyruvate kinase-lactate dehydrogenase coupled assay, IP as variable substrate. In kind it is biochemical. To be noted: 25° C.; for kinase activity (rate of IP turnover): relevant concentrations of IP and enzyme. How it is done: All specific activity and kinetic measurements were performed using the pyruvate kinase-lactate dehydrogenase coupled assay with reference to a previously established protocol (Lindsley, 2001, Methods Mol. Biol. 95:57-64.). The reaction includes the following components in a 200 ul volume: 7 U pyruvate kinase, 10 U lactate dehydrogenase, 2 mM phosphoenolpyruvate, 0.16 mM NADH, 50 mM TRIS HCl pH 8.0, 100 mM KCl, 8 mM MgCl2, 4 mM ATP, and variable concentrations of IP (purchased from Larodan Fine Chemicals). The reaction was initiated by the addition of IPK (0.15 ug) and was followed by observing the depletion of NADH at 340 nm over time, expressed as Δ(AU340)/Δt, which was converted to Δ(ADP)/Δt. These values were then plotted against substrate concentration in GraphPad Prism® (Version 5.01 for Windows) to compute the kinetic parameters kcat and Km using the “nonlinear regression enzyme kinetic analysis” option.
From the results discussed above, it is evident that His60 from IPK plays an important role in both substrate and product binding. This is accomplished through a hydrogen bonding interaction between the Nε2 atom of His60 and a non-bridging O atom from the terminal phosphate group on either the substrate (IP) or the product (IPP). From all crystal structure data, it is apparent that the Nε2 group of His60 (and not the Nδ1 group) is relevant for binding and may therefore be reasonably assumed by one skilled in the art to be relevant for IPK-mediated catalysis. To confirm this hypothesis, His60 was mutated to Ala, Asn, and Gln. The Asn and Gln mutations were made based on the rationale that their side chains contain N atoms that are isosteric with the Nδ1 and Nε2 groups on His, respectively.

Data set [2] in a line: pyruvate kinase-lactate dehydrogenase coupled assay, Km for ATP. As to conditions: 25° C. In kind it is biochemical. The method, then:
All specific activity and kinetic measurements were performed using the pyruvate kinase-lactate dehydrogenase coupled assay with reference to a previously established protocol (Lindsley, 2001, Methods Mol. Biol. 95:57-64.). […] The reaction was initiated by the addition of IPK (0.15 ug) and was followed by observing the depletion of NADH at 340 nm over time, expressed as Δ(AU340)/Δt, which was converted to Δ(ADP)/Δt. These values were then plotted against substrate concentration in GraphPad Prism® (Version 5.01 for Windows) to compute the kinetic parameters kcat and Km using the “nonlinear regression enzyme kinetic analysis” option.

Data set [3] is described as follows: coupled IPK / 5-epi-aristolochene synthase (TEAS) vial assay, GC-MS, FP to FPP conversion. It counts as biochemical. To be noted: 10 μM IPK, 150 μM FP, ATP, Mg, pH 8.0, 20 minutes at 55° C., 5-epi-aristolochene quantified by GC-MS. The method, then: FIG. 10: Assays of IPK and mutants. The single mutants of IPK, I86A and I146A, and the double mutant I86A/I146A, were tested with the C15-substrate farnesyl monophosphate (FP) using a coupled assay with a terpene cyclase (TEAS). In the first step of the reaction, IPK was incubated with magnesium, ATP, and FP at pH 8.0 for 20 minutes at 55° C. (assuming sufficient time for conversion of FP to FPP). In the second step of the reaction, a small sample of the first reaction was added to a glass vial containing magnesium and a sesquiterpene cyclase known as tobacco 5-epi-aristolochene synthase (TEAS), and this reaction was incubated overnight at 25° C. Assuming complete conversion of FPP to 5-epi-aristolochene, the reaction was extracted with ethyl acetate and the amount of 5-epi-aristolochene was quantified by GC-MS analysis.
FIGS. 11A-11B: Farnesyl phosphate (FP) phosphorylation by IPK chain length mutants. FIG. 11A: FIG. 11A depicts the coupled IPK-sesquiterpene synthase reaction used to test for FP transphosphorylation. FIG. 11B: FIG. 11B depicts comparative bar graph showing several IPK mutants qualitatively tested for their ability to convert FP to FPP, expressed as a percentage of maximal production of 5-epi-aristolocene produced from IPK-generated FPP using wild-type IPK and identical concentrations of wild-type tobacco 5-epi-aristolochene synthase incubated for equivalent lengths of time.
IPK mutants (at a final concentration of 10 μM) were incubated in a 50 μl reaction with 150 μM farnesyl monophosphate (FP), 7 mM MgCl2, 4 mM ATP, and 50 mM TRIS.HCl pH 8.0 for 20 minutes at 55° C. 10 μl of this reaction was then added to a 500 μl reaction containing 45 ug of the terpene cyclase 5-epi-aristolochene synthase (TEAS) and 10 mM MgCl2 in a 3-component buffer system (25 mM MES, 50 mM TRIS.HCl, 25 mM CAPS) at pH 7.0. A method known as the “vial assay” (O'Maille et al., 2004, Anal. Biochem. 335:210-217) was employed by overlaying this aqueous layer with 500 μl of ethyl acetate, incubating overnight at 25° C., and vortexing to extract the terpene product into the organic layer prior to quantitative GC-MS analysis. Both negative and positive control reactions were conducted as follows. For the negative control, no IPK was added to the first reaction. For the positive control, […] of FPP (equivalent to the amount that would be present assuming complete FP to FPP turnover) was added to the TEAS reaction.
Similar studies were conducted using FPP modeled into the active site of IPK. The reaction of IPK on FP to form FPP is depicted in FIG. 10. The I146A I86A single-residue mutations, and the […] double mutation were tested with the C15-substrate farnesyl monophosphate (FP) using a coupled assay with a terpene cyclase (TEAS). In the first step of the reaction, IPK was incubated with magnesium, ATP, and FP at pH 8.0 for 20 minutes at 55° C., which was judged as sufficient time for conversion of FP to FPP. In the second step of the reaction, a small sample of the first reaction was added to a glass vial containing magnesium and a sesquiterpene cyclase known as tobacco 5-epi-aristolochene synthase (TEAS), and this reaction was incubated overnight at 25° C. Assuming complete conversion of FPP to 5-epi-aristolochene, the reaction was extracted with ethyl acetate and the amount of 5-epi-aristolochene was quantitated by GC-MS analysis.

For data set [4] the following is noted: read-out: Km value for UMP; cited from earlier work.
The conditions of data set [5]: read-out: Km value for ATP; cited from earlier work.
Setting [6] is: measured in one instance (other than Table 4).

Where a chain is given by its changes, count along the chain named. In names and notes the source's numbering stands. Entries after “also recorded” stand apart in the source; their conditions may differ. Where two headings read alike, the source gives them in different places.

B1: IPK-Mjannaschii H60A: M. jannaschii IPK with His60 mutated to Ala (protein, UniProt Q60352 1-260, looked up, variant H60A)
Isopentenyl phosphate kinase: MLTILKLGGSILSDKNVPYSIKWDNLERIAMEIKNALDYYKNQNKEIKLILVHGGGAFGAPVAKKYLKIEDGKKIFINMEKGFWEIQRAMRRFNNIIIDTLQSYDIPAVSIQPSSFVVFGDKLIFDTSAIKEMLKRNLVPVIHGDIVIDDKNGYRIISGDDIVPYLANELKADLILYATDVDGVLIDNKPIKRIDKNNIYKILNYLSGSNSIDVTGGMKYKIDMIRKNKCRGFVFNGNKANNIYKALLGEVEGTEIDFSE
As for B1, in data set [1], the “kinase activity (rate of IP turnover)” value is reported as “immeasurable; also recorded: no measurable activity”.

B2: IPK-Mjannaschii: isopentenyl phosphate kinase from Methanocaldococcus jannaschii, SEQ ID NO:1, wild type (protein, listed as Methanocaldococcus jannaschii)
chain: B1 Isopentenyl phosphate kinase with A60H, D223E
The term Km denotes the concentration of substrate that gives half-maximal velocity. What is called kcat is the maximal rate divided by the concentration of active sites. Consider B2, for which the Km in data set [2] was found to be 198 µM. Moreover, in data set [1], the Michaelis-Menten constant (Km) stood at 4.3 ± 0.6 µM and the catalytic constant (kcat) was 1.46 ± 0.03 s⁻¹. Also, the “conversion (phosphorylation) of FP to FPP” value (from here on “conversion (phosphorylation)”) in data set [3] is reported as “significantly less phosphorylation”.

B3: IPK-Mjannaschii H60Q: M. jannaschii IPK with His60 mutated to Gln (protein, UniProt Q60352 1-260, looked up, variant H60Q)
Isopentenyl phosphate kinase: B1 Isopentenyl phosphate kinase with A60Q
On to B3, for which the Michaelis-Menten constant (Km) in data set [2] came to 559 µM. Further, in data set [1], the Km came out at 34.5 µM, the “kcat” value was found to be 0.040 ± 0.002 s⁻¹ and the “kinase activity (rate of IP turnover)” value is “able to turn over a measurable amount of IP”. Moreover, in data set [1] (versus wild type IPK), the “Km for IP, fold larger than wild type” value was 8 fold and the “kcat, fold slower than wild type” value is reported as approximately 40 fold. In addition, in data set [1] (listed as H60Q), the “kcat” value is 0.04 s⁻¹.

B4: IPK-Mjannaschii H60N: M. jannaschii IPK with His60 mutated to Asn (protein, UniProt Q60352 1-260, looked up, variant H60N)
Isopentenyl phosphate kinase: B1 Isopentenyl phosphate kinase with A60N
Turning to B4, the “kinase activity (rate of IP turnover)” value in data set [1] is “immeasurable; also recorded: no measurable activity”.

B5: I86A: IPK single mutant, residue 86 Ile to Ala (protein, listed as Methanocaldococcus jannaschii)
chain: B1 Isopentenyl phosphate kinase with A60H, I86A, D223E
Take B5: in data set [3], the “conversion (phosphorylation)” value is given as “significant percentage of FP; also recorded: significant percentage of substrate”.

B6: I146A: IPK single mutant, residue 146 Ile to Ala (protein, listed as Methanocaldococcus jannaschii)
chain: B1 Isopentenyl phosphate kinase with A60H, I146A, D223E
For B6, the “conversion (phosphorylation)” value in data set [3] is “significant percentage of FP; also recorded: significant percentage of substrate”.

B7: F83A/I86A/I156A: IPK triple mutant F83A, I86A, I156A (protein)
chain: B1 Isopentenyl phosphate kinase with A60H, F83A, I86A, I156A, D223E
As for B7, the “conversion (phosphorylation)” value in data set [3] is recorded as “greatest turnover”.

B8: I156V: IPK mutant, residue 156 Ile to Val (protein, listed as Methanocaldococcus jannaschii)
chain: B1 Isopentenyl phosphate kinase with A60H, I156V, D223E
Turning to B8, the “conversion (phosphorylation)” value in data set [3] is given as “decreased activity”.

B9: I146V: IPK mutant, residue 146 Ile to Val (protein, listed as Methanocaldococcus jannaschii)
chain: B1 Isopentenyl phosphate kinase with A60H, I146V, D223E
For B9, the “conversion (phosphorylation)” value in data set [3] is listed as “decreased activity”.

B10: I86A/I146A: IPK double mutant I86A and I146A (protein)
chain: B1 Isopentenyl phosphate kinase with A60H, I86A, I146A, D223E
As for B10, the “conversion (phosphorylation)” value was “significant percentage of substrate” in data set [3] and “significant percentage of FP” in data set [3] (listed as I146A/I146A).

B11: IPK-Mmaripaludis: isopentenyl phosphate kinase homolog from Methanococcus maripaludis, SEQ ID NO:8 (protein, listed as Methanococcus maripaludis)
chain: MFAILKLGGSILCDKNVPYSINWENLENIAIEIKEAIEYYSSKNEDFKLIIVHGGGSFGHPVAKKYLKNEKFEDMGKGYWEIQKAMRKFNNIVIEELQNFEPAVSIQASSFITFNHKSNLHFDTNAIEKMLDKGLIPVIHGDIVIDEKTDNFKIFSGDHALPFLSKKLNPDLSLHASDVDGVWDSEFKIIENINSKNIEDVLKSLKPSNKEDVTGGMHLKVMECYNLGIETIIFNGNKKRNIYNALLKNVKGTLIN
In the case of B11, the values for the Km in data set [2] (setting [6]), in data set [1] and in data set [1] (setting [6]) were 96 ± 6 µM, 21.4 ± 4.2 µM and 16.1 µM, respectively. For the same molecule, the “kcat” value in data set [1] was determined as 13.1 ± 0.5 s⁻¹.

B12: UMPK from Sulfolobus solfataricus: uridine monophosphate kinase from Sulfolobus solfataricus, literature comparison (Jensen et al., 2007) (protein, UniProt Q97ZE2 1-227, looked up)
Uridylate kinase: MMNIILKISGKFFDEDNVDNLIVLRQSIKELADNGFRVGIVTGGGSTARRYIKLAREIGIGEAYLDLLGIWASRLNAYLVMFSLQDLAYMHVPQSLEEFIQDWSHGKVVVTGGFQPGQSTAAVAALVAEASSSKTLVVATNVDGVYEKDPRIYADVKLIPHLTTQDLRKILEGSQSVQAGTYELLDPLAIKIVERSKIRVIVMNYRKLNRIIDILKGEEVSSIIEPV
With B12, the results for the Km in data set [4] and in data set [5] were 14 µM and 81 µM, respectively.
